Results: article PMC7417313

Legend:
Experiment in all cases: SPR; His-tagged rH fragment held on a Ni-charged NTA chip (BIAcore X or 3000; 500-1,000 RU, reloaded for each injection), C3 protein injected in HBS-P (10 mM HEPES pH 7.4, 150 mM NaCl, 0.005% P20) at 5 μL/min, 25°C; reference cell with nickel only; equilibrium levels fitted to a one-site equation
[1] = biological target: recombinant Factor H fragment rH 19-20 (human)
[2] = biological target: recombinant Factor H fragment rH 18-20 (human)
[3] = biological target: recombinant Factor H fragment rH 16-20 (human)
[4] = biological target: recombinant Factor H fragment rH 1-7 (human)
[5] = biological target: full-length recombinant Factor H (human) (UniProt P08603)
[6] = biological target: recombinant Factor H fragment rH 1-6 (human)
[7] = biological target: recombinant Factor H fragment rH 1-8 (human)
[8] = biological target: recombinant Factor H fragment rH 17-20 (human)

Chain of full-length recombinant Factor H (human) (P08603 19-1231): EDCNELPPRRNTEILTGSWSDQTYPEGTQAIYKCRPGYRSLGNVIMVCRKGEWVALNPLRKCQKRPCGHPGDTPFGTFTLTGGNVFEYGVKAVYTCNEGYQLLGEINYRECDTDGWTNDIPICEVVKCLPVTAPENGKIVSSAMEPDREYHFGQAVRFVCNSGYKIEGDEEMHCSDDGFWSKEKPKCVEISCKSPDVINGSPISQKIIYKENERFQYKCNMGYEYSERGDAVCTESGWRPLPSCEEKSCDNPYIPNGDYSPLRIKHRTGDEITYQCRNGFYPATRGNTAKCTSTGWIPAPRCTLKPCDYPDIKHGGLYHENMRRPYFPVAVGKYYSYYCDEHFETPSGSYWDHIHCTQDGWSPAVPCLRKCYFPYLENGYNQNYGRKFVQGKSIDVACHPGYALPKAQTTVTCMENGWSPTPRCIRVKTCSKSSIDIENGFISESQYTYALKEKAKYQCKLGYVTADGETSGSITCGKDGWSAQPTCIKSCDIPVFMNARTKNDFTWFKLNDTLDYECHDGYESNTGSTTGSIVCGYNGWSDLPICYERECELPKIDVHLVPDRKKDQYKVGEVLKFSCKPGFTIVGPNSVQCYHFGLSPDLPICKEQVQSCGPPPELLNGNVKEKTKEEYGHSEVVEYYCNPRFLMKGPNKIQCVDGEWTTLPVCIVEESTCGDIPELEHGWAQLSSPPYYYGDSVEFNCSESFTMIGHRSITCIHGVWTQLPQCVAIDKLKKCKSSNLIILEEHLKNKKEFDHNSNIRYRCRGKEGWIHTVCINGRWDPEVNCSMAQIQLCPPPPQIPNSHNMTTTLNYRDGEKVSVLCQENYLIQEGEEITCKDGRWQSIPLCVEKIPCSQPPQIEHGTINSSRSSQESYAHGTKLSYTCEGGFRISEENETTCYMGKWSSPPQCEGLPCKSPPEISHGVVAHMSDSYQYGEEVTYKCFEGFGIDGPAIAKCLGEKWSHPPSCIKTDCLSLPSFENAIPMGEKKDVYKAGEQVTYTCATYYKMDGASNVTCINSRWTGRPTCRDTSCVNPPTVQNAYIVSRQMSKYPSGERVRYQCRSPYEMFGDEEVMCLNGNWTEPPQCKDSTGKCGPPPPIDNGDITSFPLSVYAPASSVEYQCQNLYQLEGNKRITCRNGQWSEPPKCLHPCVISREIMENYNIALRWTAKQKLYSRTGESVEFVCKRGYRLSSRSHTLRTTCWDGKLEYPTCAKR
Chain of C3d (P01024 1002-1303): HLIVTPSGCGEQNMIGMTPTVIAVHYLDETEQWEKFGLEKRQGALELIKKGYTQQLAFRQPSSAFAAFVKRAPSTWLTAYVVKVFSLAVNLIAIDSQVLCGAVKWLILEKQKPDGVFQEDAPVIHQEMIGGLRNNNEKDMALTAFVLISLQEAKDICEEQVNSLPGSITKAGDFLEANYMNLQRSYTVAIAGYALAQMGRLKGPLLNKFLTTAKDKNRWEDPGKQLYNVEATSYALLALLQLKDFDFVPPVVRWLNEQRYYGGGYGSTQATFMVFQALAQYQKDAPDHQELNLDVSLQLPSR

| Kd [1] [µM] | Kd [2] [µM] | Kd [3] [µM] | Kd [4] [µM] | Kd [5] [µM] | Kd [6] [µM] | Kd [7] [µM] | Kd [8] [µM] | Substance |
| --- | --- | --- | --- | --- | --- | --- | --- | --- |
| 1.7 | 1.9 | 2.4 | 0.08 | 0.095 | 0.08 | 0.15 | 2.1 | C3b (domain or fragment) |
| 1.9 | – | – | – | – | – | – | – | C3d (from UniProt P01024 1002-1303) (domain or fragment) |
| – | – | – | – | – | 0.4 | – | – | complement component C3 (native C3) (natural protein) |
| 2.8 | – | – | – | – | 5 | – | – | iC3b (domain or fragment) |
